From PMC6643034, “A knottin scaffold directs the CXC-chemokine–binding specificity of tick evasins” (The Journal of Biological Chemistry, 2019)

B4: CXCL11 (ligand, human, UniProt O14625 22-94, looked up)
chain: FPMFKRGRCLCIGPGVKAVKVADIEKASIMYPSNNCDKIEVIITLKENKGQRCLNPKSKQARLIIKKVERKNF
notes: human CXCL11
B9: CXCL13 (ligand, human, UniProt O43927 23-109, looked up)
chain: VLEVYYTSLRCRCVQESSVFIPRRFIDRIQILPRGNGCPRKEIIVWKKNKSIVCVDPQAEWIQRMMEVLRKRSSSTLPVPVFKRKIP
notes: human CXCL13

What was measured:
Conditions in all cases: both partners purified
[1] = target: T1, CXCL10 (human, UniProt P02778 22-98); assay: BLI; cross-binding screen on OctetRed; evasin held on a nickel-coated biosensor through its C-terminal His tag; each human chemokine at 300 nM
T1 construct: human CXCL10

[2] = target: B9; assay: as above
[3] = target: T2, CXCL1 (human, UniProt P09341 35-107); assay: as above
T2 construct: human CXCL1

[4] = target: T3, CXCL3 (human, UniProt P19876 35-107); assay: as above
T3 construct: human CXCL3

[5] = target: B4; assay: as above
[6] = target: T4, CXCL2 (human, UniProt P19875 35-107); assay: as above
T4 construct: human CXCL2

[7] = target: T5, P1080_IXORI (Ixodes ricinus, UniProt A0A090XBL6 20-118); assay: as above
T5 construct: evasin P1080, mature peptide, 99 residues; N-terminal DGG expected after signal peptide cleavage; glycosylated
T5 sequence (A0A090XBL6 20-118): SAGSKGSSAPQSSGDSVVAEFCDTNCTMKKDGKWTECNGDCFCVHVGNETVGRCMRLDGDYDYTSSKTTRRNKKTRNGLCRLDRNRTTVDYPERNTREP

[8] = target: T6, CXCL2 (human, UniProt P19875 35-107); assay: BLI; OctetRed; parental evasins and domain-swap hybrids held by the His tag; titration with chemokine from 600 to 0.4 nM; fit criterion R2 ≥ 0.89, five (in four cases four) concentrations
T6 construct: human CXCL2 of the panel of human chemokines used for biolayer interferometry

[9] = target: T7, CXCL3 (human, UniProt P19876 35-107); assay: as above
T7 construct: human CXCL3 of the panel of human chemokines used for biolayer interferometry

[10] = target: T1, CXCL10; assay: BLI; cross-binding screen on OctetRed; evasin held on a nickel-coated biosensor through its C-terminal His tag; each human chemokine at 300 nM; remark: listed apart in the source
[11] = target: T2, CXCL1; assay: as above; remark: listed apart in the source
[12] = target: T3, CXCL3; assay: as above; remark: listed apart in the source
[13] = target: B4; assay: as above; remark: listed apart in the source
[14] = target: T4, CXCL2; assay: as above; remark: listed apart in the source
[15] = target: T2, CXCL1; assay: as above; remark: listed apart in the source
[16] = target: T3, CXCL3; assay: as above; remark: listed apart in the source
[17] = target: T4, CXCL2; assay: as above; remark: listed apart in the source

Measured: binding result

B1: P1100_IXORI (natural protein)
chain: GSKGSSASQSSDNSVVAKFCDTNCTINEGGKWTECKGGCFCVHVGNETVGRCMKLDGDYDYPSPKPEE
notes: evasin P1100, mature peptide, 68 residues; N-terminal DGG expected after signal peptide cleavage; glycosylated
binds: [1] | [2] | [3] | [4] | [5] | [6]

B2: P1078_IXORI (natural protein)
chain: GSKGSSAQQSSHDSIKAEFCETNCTMKTGGKWTQCHGGCFCVHVGNETVGRCIKLDGDYDYPSSKHEE
notes: evasin P1078, mature peptide, 68 residues; N-terminal DGG expected after signal peptide cleavage; glycosylated
binds: [2] | [3] | [4] | [5] | [6]

B3: P942_IXORI (natural protein)
chain: NQLSGPQSSANSNEAVFCDTNCTQGTDEAWSGCRGDCFCVYVGNSTEGRCMMLSGDFDYSTPGAED
notes: evasin P942, mature peptide, 66 residues; N-terminal DGG expected after signal peptide cleavage; glycosylated
binds: [1] | [2] | [3] | [4] | [5] | [6]

B4
binds: [7]

B5: Evasin 3 (EVA3) (natural protein)
chain: DGGLVSTIESRTSGDGADNFDVVSCNKNCTSGQNECPEGCFCGLLGQNKKGHCYKIIGNLSGEPPVVRR
modifications: also: glycosylated
notes: residues expected at the N terminus after cleavage of the Igκ signal peptide (SignalP 3.0); Evasin-3 (EVA3_RHISA), Rhipicephalus sanguineus, mature peptide; class I founder; also called EVA3_RHISA; WT EVA3; source: HEK293F, transiently transfected, secreted; purified (nickel IMAC, SEC)
binds: [8] | [9]

B6: P1086_IXORI (natural protein)
chain: GSKGQRASQVSETSITAEFCDTSCTQGTDKTWSGCSGDCFCVHVGNDTEGRCMRWDGDYPSAEEEE
notes: evasin P1086, mature peptide, 66 residues; N-terminal DGG expected after signal peptide cleavage; glycosylated
binds: [1] | [2] | [3] | [4] | [6]

B7: P1142_AMBCA (natural protein)
chain: KPQILQRTDHSTDSDWDPQMCPETCNPSKNISCSSECLCVTLGGGDETGTCFNMSGVDWLGHAQASDGHNDG
notes: evasin P1142, mature peptide, 72 residues; N-terminal DGG expected after signal peptide cleavage; glycosylated
binds: [10] | [11] | [12] | [13] | [14]

B8: EVA3_RHISA (natural protein)
chain: LVSTIESRTSGDGADNFDVVSCNKNCTSGQNECPEGCFCGLLGQNKKGHCYKIIGNLSGEPPVVRR
notes: N-terminal DGG expected after signal peptide cleavage; glycosylated; also called evasin 3; Evasin-3
binds: [15] | [16] | [17]

B9
binds: [7]

B10: P1126_AMBCA (natural protein)
chain: KPQILQRTDKSTDSEWDPQTCPETCIPSKNITCSDGCVCVKLGEEEEGTCFNMTGVDWLGSPSDD
notes: evasin P1126, mature peptide, 65 residues; N-terminal DGG expected after signal peptide cleavage; glycosylated
binds: [10] | [11] | [12] | [13] | [14]
